Consider three substances from patent US5252705.

This experiment concerns the target hPTH (1-34) (human) (UniProt P01270). Also on record: unit not given beside the values.
“Compound 1 (Ser-Glu-Ile-Gln-Leu-Met-His-Asn-Leu-Gly-Lys-Ser-Ile-Gln-Asp-Leu-Arg-Arg-Arg-Phe-Phe-Leu-His-His-Leu-Ile-Ala-Glu-Ile-His-Thr-Ala-NH2) (peptide)”: the IC50: 50% inhibition of cAMP production in cultured mouse osteoblast MC3T3-E1 cells was 0.007.

Regarding “Compound 3 (Ile-Gln-Leu-Met-His-Asn-Leu-Gly-Lys-Ser-Ile-Gln-Asp-Leu-Arg-Arg-Arg-Phe-Phe-Leu-His-His-Leu-Ile-Ala-Glu-Ile-His-Thr-Ala-NH2) (peptide)”, the IC50: 50% inhibition of cAMP production in cultured mouse osteoblast MC3T3-E1 cells turned out to be 0.015.

On to “[Tyr^34]-hPTH (3-34)-NH2 (from UniProt P01270) (peptide)”, for which the IC50: 50% inhibition of cAMP production in cultured mouse osteoblast MC3T3-E1 cells worked out at 1.
